Values quoted from earlier work, collected in article PMC11449013.
Read-outs that look alike come from different tables or passages of the source.

Target: His128 (UniProt position 179, FICPCHGSQYN)

Cytochrome b6f complex Rieske iron-sulfur protein (ISP, PetC) (Spinacia oleracea (residue numbering; the article does not state the species in which the quoted values were measured))
pKa (2Fe2S cluster oxidised): ∼6.2 | pKa (2Fe2S cluster reduced): ∼8
